Like-named read-outs stand apart in the source and are kept apart here.
B1: Ws0279 (natural protein)
chain: QKSTLNEIIKRGELRVGLEPGYLPFEMKDKKGNVIGFDVDLAREMAKAMGVKLKLVPTSWDGLIPGLVTEKFDIIISGMTISQERNLRVNFVEPYIVVGQSLLVKKGLEKGVKSYKDLDKPELTLVTKFGVSAEYAAKRLFKNAKLKTYDTEAEAVQEVLNGKADMFIFDLPFNVAFMAQKGQGYLVHLDTSLTYEPLGWAIKKGDPDFLNWLNHFLAQIKHDGSYDELYERWFVL
B2: PaCDTΔC (C-terminal-truncated PaCDT) (enzyme, Pseudomonas aeruginosa, UniProt Q01269 26-259, looked up)
chain: QESRLDRILESGVLRVATTGDYKPFSYRTEEGGYAGFDVDMAQRLAESLGAKLVVVPTSWPNLMRDFADDRFDIAMSGISINLERQRQAYFSIPYLRDGKTPITLCSEEARFQTLEQIDQPGVTAIVNPGGTNEKFARANLKKARILVHPDNVTIFQQIVDGKADLMMTDAIEARLQSRLHPELCAVHPQQPFDFAEKAYLLPRDEAFKRYVDQWLHIAEQSGLLRQRMEHWLE
B3: Cyclohexadienyl dehydratase from Pseudomonas aeruginosa (PaCDT) (enzyme, UniProt Q01269 26-268, looked up)
chain: QESRLDRILESGVLRVATTGDYKPFSYRTEEGGYAGFDVDMAQRLAESLGAKLVVVPTSWPNLMRDFADDRFDIAMSGISINLERQRQAYFSIPYLRDGKTPITLCSEEARFQTLEQIDQPGVTAIVNPGGTNEKFARANLKKARILVHPDNVTIFQQIVDGKADLMMTDAIEARLQSRLHPELCAVHPQQPFDFAEKAYLLPRDEAFKRYVDQWLHIAEQSGLLRQRMEHWLEYRWPTAHGK

How the values were obtained:
AncCDT‐5 (A5) = assay: discontinuous colorimetric assay of phenylpyruvate formation; type: biochemical, synthetic construct; details: 25°C, 50 mM Na2HPO4 substrate buffer, 100 nM enzyme
[1] = target: the molecule itself
SEC-MALS = target: the molecule itself; assay: SEC-MALS

| Molecule | stoichiometry N (SEC-MALS) | also measured |
| --- | --- | --- |
| O=C(O)C(=O)CC1(C(=O)O)C=CC(O)C=C1 (stereo not shown) [prephenate] |  | Km (AncCDT‐5 (A5)): 81.2 ± 26.3 µM |
| B1 |  | stoichiometry N [1]: 3 |
| B2 | 3 |  |
| B3 | 3 |  |

From PMC9703590 (Protein Science : A Publication of the Protein Society, 2022)
